Measured values published in the Human Domainome abundance scans (Beltran et al. 2025).
± gives the uncertainty stated by the source.

B1: CD2-associated protein, residues 1 to 59; numbered along this chain, Q9Y5K6 (parent)
chain: MVDYIVEYDYDAVHDDELTIRVGEIIRNVKKLQEEGWLEGELNGRRGMFPDNFVKEIKR

Variants of: B1
Test: abundance fitness (aPCA) (normalised: wild type 0, dead -1); higher = more abundant; growth selection in yeast, the domain comes from the species named
Conditions: Homo sapiens

Point of comparison: MVDYIVEYDSDAVHDDELTIRVGEIIRNVKKLQEEGWLEGELNGRRGMFPDNFVKEIKR [Y10S], abundance fitness -0.999 ± 0.17. Against it:
- MVDYIVEYVYDAVHDDELTIRVGEIIRNVKKLQEEGWLEGELNGRRGMFPDNFVKEIKR [D9V] — within error, -0.77 ± 0.37
- MVDYIVEYTYDAVHDDELTIRVGEIIRNVKKLQEEGWLEGELNGRRGMFPDNFVKEIKR [D9T] — within error, -0.725 ± 0.21
- MVDYIVEYSYDAVHDDELTIRVGEIIRNVKKLQEEGWLEGELNGRRGMFPDNFVKEIKR [D9S] — higher, -0.172 ± 0.13
- MVDYIVEYCYDAVHDDELTIRVGEIIRNVKKLQEEGWLEGELNGRRGMFPDNFVKEIKR [D9C] — within error, -0.671 ± 0.37
- MVDYIVEYEYDAVHDDELTIRVGEIIRNVKKLQEEGWLEGELNGRRGMFPDNFVKEIKR [D9E] — higher, -0.346 ± 0.12
- MVDYIVEYRYDAVHDDELTIRVGEIIRNVKKLQEEGWLEGELNGRRGMFPDNFVKEIKR [D9R] — higher, -0.417 ± 0.11
- MVDYIVEYLYDAVHDDELTIRVGEIIRNVKKLQEEGWLEGELNGRRGMFPDNFVKEIKR [D9L] — within error, -0.92 ± 0.24
- MVDYIVEYAYDAVHDDELTIRVGEIIRNVKKLQEEGWLEGELNGRRGMFPDNFVKEIKR [D9A] — higher, -0.091 ± 0.14
- MVDYIVEYNYDAVHDDELTIRVGEIIRNVKKLQEEGWLEGELNGRRGMFPDNFVKEIKR [D9N] — higher, -0.276 ± 0.4
- MVDYIVEYKYDAVHDDELTIRVGEIIRNVKKLQEEGWLEGELNGRRGMFPDNFVKEIKR [D9K] — higher, -0.369 ± 0.32
- MVDYIVEYGYDAVHDDELTIRVGEIIRNVKKLQEEGWLEGELNGRRGMFPDNFVKEIKR [D9G] — higher, -0.242 ± 0.096
- MVDYIVEDDYDAVHDDELTIRVGEIIRNVKKLQEEGWLEGELNGRRGMFPDNFVKEIKR [Y8D] — higher, -0.197 ± 0.22
- MVDYIVEGDYDAVHDDELTIRVGEIIRNVKKLQEEGWLEGELNGRRGMFPDNFVKEIKR [Y8G] — higher, -0.026 ± 0.1
- MVDYIVEHDYDAVHDDELTIRVGEIIRNVKKLQEEGWLEGELNGRRGMFPDNFVKEIKR [Y8H] — higher, 0.148 ± 0.23
- MVDYIVELDYDAVHDDELTIRVGEIIRNVKKLQEEGWLEGELNGRRGMFPDNFVKEIKR [Y8L] — higher, -0.047 ± 0.084
- MVDYIVEEDYDAVHDDELTIRVGEIIRNVKKLQEEGWLEGELNGRRGMFPDNFVKEIKR [Y8E] — higher, -0.02 ± 0.099
- MVDYIVETDYDAVHDDELTIRVGEIIRNVKKLQEEGWLEGELNGRRGMFPDNFVKEIKR [Y8T] — higher, 0.123 ± 0.16
- MVDYIVEKDYDAVHDDELTIRVGEIIRNVKKLQEEGWLEGELNGRRGMFPDNFVKEIKR [Y8K] — higher, 0.057 ± 0.12
- MVDYIVEFDYDAVHDDELTIRVGEIIRNVKKLQEEGWLEGELNGRRGMFPDNFVKEIKR [Y8F] — higher, 0.078 ± 0.18
- MVDYIVEWDYDAVHDDELTIRVGEIIRNVKKLQEEGWLEGELNGRRGMFPDNFVKEIKR [Y8W] — higher, -0.139 ± 0.094
- MVDYIVEADYDAVHDDELTIRVGEIIRNVKKLQEEGWLEGELNGRRGMFPDNFVKEIKR [Y8A] — higher, 0.002 ± 0.082
- MVDYIVERDYDAVHDDELTIRVGEIIRNVKKLQEEGWLEGELNGRRGMFPDNFVKEIKR [Y8R] — higher, 0.097 ± 0.098
- MVDYIVEIDYDAVHDDELTIRVGEIIRNVKKLQEEGWLEGELNGRRGMFPDNFVKEIKR [Y8I] — higher, 0.184 ± 0.2
- MVDYIVEVDYDAVHDDELTIRVGEIIRNVKKLQEEGWLEGELNGRRGMFPDNFVKEIKR [Y8V] — higher, -0.154 ± 0.11
- MVDYIVEMDYDAVHDDELTIRVGEIIRNVKKLQEEGWLEGELNGRRGMFPDNFVKEIKR [Y8M] — higher, -0.261 ± 0.12
- MVDYIVECDYDAVHDDELTIRVGEIIRNVKKLQEEGWLEGELNGRRGMFPDNFVKEIKR [Y8C] — higher, 0.096 ± 0.11
- MVDYIVEQDYDAVHDDELTIRVGEIIRNVKKLQEEGWLEGELNGRRGMFPDNFVKEIKR [Y8Q] — higher, 0.04 ± 0.12
- MVDYIVESDYDAVHDDELTIRVGEIIRNVKKLQEEGWLEGELNGRRGMFPDNFVKEIKR [Y8S] — higher, 0.013 ± 0.078
- MVDYIVEPDYDAVHDDELTIRVGEIIRNVKKLQEEGWLEGELNGRRGMFPDNFVKEIKR [Y8P] — within error, -0.918 ± 0.34
- MVDYIVEYDYYAVHDDELTIRVGEIIRNVKKLQEEGWLEGELNGRRGMFPDNFVKEIKR [D11Y] — higher, -0.242 ± 0.14
- MVDYIVEYDYVAVHDDELTIRVGEIIRNVKKLQEEGWLEGELNGRRGMFPDNFVKEIKR [D11V] — higher, -0.002 ± 0.16
- MVDYIVEYDYNAVHDDELTIRVGEIIRNVKKLQEEGWLEGELNGRRGMFPDNFVKEIKR [D11N] — higher, -0.086 ± 0.17
- MVDYIVEYDRDAVHDDELTIRVGEIIRNVKKLQEEGWLEGELNGRRGMFPDNFVKEIKR [Y10R] — higher, -0.014 ± 0.062
- MVDYIVEYDEDAVHDDELTIRVGEIIRNVKKLQEEGWLEGELNGRRGMFPDNFVKEIKR [Y10E] — within error, -0.787 ± 0.19
- MVDYIVEYDGDAVHDDELTIRVGEIIRNVKKLQEEGWLEGELNGRRGMFPDNFVKEIKR [Y10G] — within error, -0.671 ± 0.21
- MVDYIVEYDHDAVHDDELTIRVGEIIRNVKKLQEEGWLEGELNGRRGMFPDNFVKEIKR [Y10H] — higher, -0.257 ± 0.28
- MVDYIVEYDPDAVHDDELTIRVGEIIRNVKKLQEEGWLEGELNGRRGMFPDNFVKEIKR [Y10P] — within error, -0.904 ± 0.26
- MVDYIVEYDLDAVHDDELTIRVGEIIRNVKKLQEEGWLEGELNGRRGMFPDNFVKEIKR [Y10L] — within error, -0.782 ± 0.1
- MVDYIVEYDWDAVHDDELTIRVGEIIRNVKKLQEEGWLEGELNGRRGMFPDNFVKEIKR [Y10W] — higher, -0.037 ± 0.062
- MVDYIVEYDADAVHDDELTIRVGEIIRNVKKLQEEGWLEGELNGRRGMFPDNFVKEIKR [Y10A] — within error, -0.787 ± 0.14
- MVDYIVEYDDDAVHDDELTIRVGEIIRNVKKLQEEGWLEGELNGRRGMFPDNFVKEIKR [Y10D] — within error, -0.473 ± 0.46
- MVDYIVEYDMDAVHDDELTIRVGEIIRNVKKLQEEGWLEGELNGRRGMFPDNFVKEIKR [Y10M] — higher, -0.667 ± 0.11
- MVDYIVEYDVDAVHDDELTIRVGEIIRNVKKLQEEGWLEGELNGRRGMFPDNFVKEIKR [Y10V] — within error, -1.06 ± 0.39
- MVDYIVEYDTDAVHDDELTIRVGEIIRNVKKLQEEGWLEGELNGRRGMFPDNFVKEIKR [Y10T] — within error, -0.878 ± 0.18
